Measured values as given in the supplement of paper PMC12042874.
± gives the uncertainty stated by the source.

Assay: amyloid nucleation score (Sup35N fusion, yeast selection) (log enrichment); library NNK3; higher = more nucleation; inactive = no reads after selection
Procedure, shortened: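 For the nucleation score, DiMSum gave the log enrichment of output over input reads, centred on the mode score of non-aggregating sequences. Psi-negative yeast expressing Sup35N fused to peptides of 20 random codons were induced with 100 μM copper sulfate for 24 hours and grown 7 days at 30°C on medium lacking adenine and uracil. Input and output plasmid inserts were Illumina-sequenced, and sequences with under 100 input reads were excluded.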

Substance	amyloid nucleation score
AGEKPNSIFYSTHSSRSFSN	0.965 ± 0.17
IRRFIKNIVYTYGHLLLEAH	inactive
YFLRREQLYNLRKGK	inactive
ASCSGIC	-0.956 ± 2.4
EDFNRILVRNVRS	inactive
PSRIGSDFSRFLSEECGQLR	inactive
IIGKRTSMVAITLFDINGSS	inactive
GKPWCNYSDYFYCTLLVDCK	-0.246 ± 0.82
FACAFKSSCLNHLCSAVW	0.757 ± 0.17
FTSFSYYMVCFCADIIKQG	1.97 ± 0.065
VFNGFVLKVEQVSIGVC	inactive
MSIYLQSTM	inactive
NVILYGKNLS	inactive
LFLSMGYLDGFYPIRSISYL	inactive
HYMFSVVNVSGDCFFLSESN	3.24 ± 0.071
IPLLQCNIERYISLFVLVVG	inactive
FITVNRQNGK	inactive
HNKDDK	inactive
LYYSWKKEYQFIWVVHTFAK	inactive
NHLGM	inactive
LSHYVMVTYRAKGRMAGRIW	inactive
ATDNVCVI	inactive
QSNFLFLDFANVYSHKQWCL	1.71 ± 0.066
GKFVRLPPISRISHLWNCEL	inactive

Substance	amyloid nucleation score
RQVSPTVVCSIILSLPFDPC	0.396 ± 0.22
HGQFMWLMYYMNILSFLLGF	inactive
NLDIFGNKMLMGRRGMLNMS	inactive
SWQNWGRGGCSGLFVSRWVT	inactive
VSFNKPLKQVKGPAVTGWKE	inactive
VGLNVSWAYIMVAEYVVYMS	-0.698 ± 0.53
NQGWTCWCVSCCLGVKIVMI	inactive
RDPSQNTSKHLSNVAFISLY	inactive
ENALARMLAEEI	inactive
LSRGFYAS	inactive
HMTGARRN	inactive
VQSMKMGPVRISKCNDKSER	inactive
RDRGKY	inactive
LLVCSWC	2.1 ± 0.093
REVGDQMIDLSRSYVQSTVG	inactive
LGYIQEN	inactive
VNWIVLSYHYNRYDVGNMAS	2.87 ± 0.074
RCDIFTTTFEFREVHCLWVG	inactive
RNWLYLFVRRLISWLNKWGK	inactive
YFNLSRIMLNELMCLVIIRQ	inactive
HTGNLYHLSWCV	inactive
TLAIGLIDEFRLHA	1.09 ± 0.13
VFFVNHFNVWLERM	inactive
ACLLVRYHTDDSNKRCSL	inactive

Substance	amyloid nucleation score
ISKSVLMMNTAKIPPPMF	inactive
VGDHDPSRFCQDNLCLSRCL	inactive
LIGCVLGSLFLRDIFIYCLM	0.409 ± 0.67
KTLYTDSS	0.114 ± 0.58
AAVWRVVKRNLCHEIGERTA	inactive
LMWTGF	inactive
SKLCVVTFLCIQTCQYDLCV	inactive
MGQRLLLVSANAWD	inactive
FVGSLDFNGVSEGFVASHCI	inactive
WCESDVMDFGSYFADFLS	inactive
PIQGAMTRNYRFRTGRGFCL	0.882 ± 0.2
RWFDTFLCLSR	inactive
DYGATGHC	inactive
CNNMYRERNNFWILMEWSLL	inactive
RPWHPLLTSDVVNCWLKIRV	inactive
IYSHSPLFLRRYGAIYESCR	inactive
WPGLRCDSGQDKRNMF	-0.039 ± 1
LYETSRSFPH	inactive
RKLGLEYGITMSCASLLALR	inactive
SNVTRMVRFFWVEGPTEYWY	inactive
SDQVGFQIEVFCVKS	inactive
YVGTYNFICEAYALDMTEQW	inactive
DVVGLVAGIVVKLILCSHYG	inactive
HKLLGVTYYAV	inactive

Substance	amyloid nucleation score
MGYCLGNDGSIKALFLVVNV	inactive
VNFRIKAIVVSLRGYDWLSG	0.287 ± 0.67
YLIDVGL	inactive
LDTYTRNYLD	inactive
GQDWIAV	inactive
SPLTARMADRRDTA	-0.134 ± 1.4
YYFRAQADCFMYICVLDLDG	inactive
QRSSHGPLGCLSDLQLNTLR	-0.882 ± 1.4
AFKMVLIGFMSMVERSNVHG	inactive
LFMLIFGCVHARNYFKPKKV	inactive
SWDFAYLYELIYFRFMFQGC	inactive
SFVQRVSLLMSVSVFETASS	inactive
DFARGYGDNALVFYLYGLMY	-0.684 ± 0.8
SWFPP	inactive
QCKVCIMLYKGDLRANGWYG	1.86 ± 0.091
RDQSVCGLSRGVIRVVGSCG	inactive
RCNGTL	inactive
HSQKTTKALRNPSNIQ	inactive
ADIGPHRCVLGAMMRWCRQT	inactive
RRSNSHYM	inactive
FATFYVQQGFGNFAPKAYS	inactive
LTIAIWVMYKDQYFCLWHLL	inactive
NILFWSF	inactive
FLMCWVLIVV	inactive

Substance	amyloid nucleation score
FLSLC	inactive
SGGYLYRSSLSTVNSEDAMV	inactive
RLRCLYTSEISVGIGNNWVS	inactive
IVLYQATCRSIKRVCVLETL	inactive
GPHNFGEMSGFVDGTRRSGV	inactive
QHMFQAWFTVNKFSRGECGF	inactive
LWMFDYKPRLVCQKSV	inactive
KRFDMMHIQTYEMGWSPSVR	inactive
FLDFTWMKHGTLALPQAAHQ	inactive
LTIINRFEFRQKNINGTYRK	2.73 ± 0.068
RVVCAD	inactive
LCTLMCTQFNYFVSETWLVP	2.25 ± 0.093
VMGVPST	inactive
IFNMSQYNKLECTLTLY	inactive
NTIGNNVKYETRCNQSV	inactive
SCQNRWYSSFHKLAETRSYW	inactive
VIMVSSRDQADLCESVMQM	inactive
SIMFVCQFGGGSRNSYGCLA	2.24 ± 0.078
AFLFTLL	inactive
LGCTGALNNRCCERQANGRQ	inactive
MIFNHMNKL	inactive
NQEQWWLATAYPNVSWSIKL	inactive
QGIGGATVTFLRLFV	inactive
